Measurements published in US20090318350A1, “PAN-HER ANTAGONISTS AND METHODS OF USE” (published 2009).

How the values were obtained:
HER3 receptor = HER3 receptor (human, UniProt P21860); experiment: cell-based or functional assay
[1] = biological target: human epidermal growth factor receptor (EGFR) (human, UniProt P00533); experiment: cell-based or functional assay

| Binder | Calculated cell proliferation (EC50; picomolar) (HER3 receptor) | Calculated cell proliferation (EC50; picomolar) [1] |
| --- | --- | --- |
| Heregulin (purified protein) (ligand) SHLVKCAEKEKTFCVNGGECFMVKDLSNPSRYLCKCPNEFTGDRCQNYVMASFYKHLGIEFMEAEELY | 6150 picomolar | – |
| EGF (purified protein) (ligand) HHHHHHIEGRNSDSECPLSHDGYCLHDGVCMYIEALDKYACNCWGYIGERCQYRDLKWWELR | – | 1150 picomolar |
